Data taken from paper PMC314469, “Protein Interaction Networks by Proteome Peptide Scanning” (PLoS Biology, 2004).

T1: amphyphisin SH3 (AMPH_HUMAN), P49418
T1 chain: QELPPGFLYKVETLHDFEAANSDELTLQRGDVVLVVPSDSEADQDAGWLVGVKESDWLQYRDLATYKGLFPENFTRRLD


Columns and labels:
[1] = target: T1, amphyphisin SH3 (AMPH_HUMAN), P49418; experiment: SPOT array
[2] = target: endophilin SH3 (SH3G2_HUMAN), Q99962; experiment: SPOT array

Row | Binder | normalised SPOT signal, Boehringer light units (BLU); mean over the file's lines of this peptide [1] | normalised SPOT signal, Boehringer light units (BLU); mean over the file's lines of this peptide [2]
1 | SLSLPDKPPPQPQQ [P42695 1464-1478] | 57.9 | 59.6
2 | VRSRFKRPKPNLAR [Q9HCY0 1434-1447] | 37 | 43.1
3 | SLLSPLRPPGQRGL [Q9UL14 222-236] | 398 | 323
4 | VRYPISRPRRRSSP [P10915 314-327] | 883 | 961
5 | WISQISRPRKKGRK [Q92794 305-318] | 190 | 452
6 | WAGTLQRPVKLLPW [P54317 34-47] | 109 | 332
7 | VTDLPKKPPPPEVT [Q96QH2 87-101] | 53 | 58.7
8 | SLLRPWRPLRARGS [Q9NV38 6-19] | 6960 | 2400
9 | WALFFRRPKASLPR [Q9ULK5 218-231] | 194 | 1700
10 | VQSIINRPRKSPLP [O75970 1239-1252] | 109 | 84.7
11 | VSGPPRKPPGTVAG [O00255 515-529] | 61.2 | 63.4
12 | VSVLPKRPRPAEFK [Q96QH2 350-363] | 54.2 | 5850
13 | WGLLPFRPPRPLPV [Q96DX2 170-184] | 4460 | 3620
14 | VTSRFKRPVNVPRD [Q9P0K9 253-266] | 32.8 | 33.4
15 | VPSLPIRPSRAPSR [O43426 1061-1074] | 21500 | 24800
16 | VSAALRRPGPSLVL [Q9BSQ9 205-218] | 34 | 0
17 | VVVALSRPVRPQDL [Q9Y6W6 10-23] | 465 | 0
18 | VSPEPRRPAPAVSP [Q96JM3 305-318] | 233 | 10.4
19 | WSQSPQRPPPSTTH [O14782 762-776] | 73.9 | 557
20 | VTIRPLRPPQRARL [O15211 317-331] | 19300 | 11400
21 | VVPQPQRPDKSPLP [P50548 338-351] | 64.7 | 279

Row | Binder | normalised SPOT signal, Boehringer light units (BLU); mean over the file's lines of this peptide [1] | normalised SPOT signal, Boehringer light units (BLU); mean over the file's lines of this peptide [2]
22 | VTLLIYRPERNTKL [Q9H4N5 254-267] | 362 | 28.7
23 | VRLLIRRPESFGPA [Q92736 2321-2334] | 15.5 | 539
24 | ASEIIERPSKKDGF [Q9BZF1 153-166] | 129 | 0.4
25 | VRPPPARPPSGPGL [BAC04982 161-175] | 966 | 13000
26 | VTSKPRKPPTPPEK [Q96JP2 954-968] | 157 | 1560
27 | VYKPPLKPPKGTRQ [O94991 330-344] | 80.6 | 782
28 | WGSLPARPRRPTPT [Q13545 27-40] | 4730 | 7230
29 | VVPVPERPPEPRAM [O94820 840-854] | 15.7 | 860
30 | VQPQLRRPFELLIA [Q96QT6 202-215] | 33.9 | 41
31 | VSYPPSKPPTYEEQ [Q15134 299-313] | 56.5 | 42.4
32 | VVSSPPRPVRHGDM [Q9Y6A1 387-400] | 2920 | 2050
33 | VSMQLRRPSDRELS [Q04206 268-281] | 44.8 | 642
34 | VVELPRRPAPPAAV [Q96SN6 144-157] | 35.8 | 60.5
35 | VRLPFHRPPRAGAW [Q9UKN7 887-900] | 2830 | 455
36 | VTQLPARPPPALYT [Q9NRJ4 1023-1037] | 39.1 | 1400
37 | VYTPPPRPPPPWGS [AAH30267 1118-1132] | 180 | 4170
38 | VSHLIRRPISVNPN [Q9NXY9 858-871] | 36.8 | 381
39 | VTDLPKKPPPPEAT [Q96QH2 111-125] | 51.8 | 58
40 | WGALPPRPPLLLLL [Q9C0B8 71-85] | 42.8 | 3390
41 | WIPVLQRPSRTAAV [O94854 101-114] | 2390 | 1300
42 | VRRIPTRPPRAPRL [Q9NWD7 62-76] | 25000 | 14400
